In patent publication US5098841A, “Process for the preparation of hydroxy acids” (CIBA-GEIGY Corporation, priority 1988, dated 1992):

Legend:
[1] = Specific activity of commercially available dehydrogenases based on pyruvate; assay type: biochemical; conditions: substrate pyruvate
From the text: (§1) The continuous reaction method, especially in an enzyme membrane reactor, is preferred for both processes.
(§2) U--unit of enzyme activity (under defined reaction conditions, 1 U produces a substance conversion of 1 μmol/min)

[2] = Specific activity of commercially available dehydrogenases based on 2-keto-4-phenylbutyric acid; assay type: biochemical; conditions: substrate 2-keto-4-phenylbutyric acid
From the text: as §1, §2

Q: With “L-LDH bovine heart Fluka 61310: commercially available L-lactate dehydrogenase from bovine heart, Fluka 61310” as the substance, how does the “U/mg protein based on pyruvate” value [1] read?
A: 300 U/mg protein

Q: And the “U/mg protein based on 2-keto-4-phenylbutyric acid” value [2]?
A: 0.07 U/mg protein
